Sequences and labels used below:
B1: Synaptonemal complex protein ZIP1 (Saccharomyces cerevisiae), P31111 (parent)
chain: MSNFFRDSSMGFKPRPNIFAKLRVRDVDSDSSANTVVENSSNCLDVGSSIEGDDTFKKPHKTSTEQELITSMSLSQRNHGYSDDMEIGSPKKTTSTDQYNRILKNDVAAIENDTDEDFEITEVREVSEGVAKETKESHGDPNDSETTLKDSKMHEYTMTNGKAPLHTSINNSSTSSNDVLLEAFTNTQRICSNLKQELQKQQQDNAKLKVRLQSYASNSDKINEKVGKYKSCLETLQERIATLTSHKNNQETKLKDLRQNHQLYQRRISGFKTSIENLNKTINDLGKNKKEADAELMKKGKEIEYLKRELDDCSGQLSEEKIKNSSLIQEMGKNREEMIKSIENFFSEDKAHHLLQFNKFEERVHDLFEKKLQKHFDVAKDTLNVGLRNTTVELSSNTETMLKQQYEDIKENLEQKMSSSKDEMAKTINELSVTQKGLIMGVQEELLTSSGNIQTALVSEMNNTRQELLDDASQTAKNYASLENLVKAYKAEIVQSNEYEERIKHLESERSTLSSQKNQIISSLGTKEAQYEDLVKKLEAKNIEISQISGKEQSLTEKNENLSNELKKVQDQLEKLNNLNITTKSNYENKISSQNEIVKALVSENDTLKQRIQQLVEIKENEQKDHTTKLEAFQKNNEQLQKLNVEVVQLKAHELELEEQNRHLKNCLEKKETGVEESLSDVKTLKQQVIVLKSEKQDITAEKLELQDNLESLEEVTKNLQQKVQSQKRELEQKIKELEEIKNHKRNEPSKKGTQNFTKPSDSPKKNATTSNLFPNNSAAIHSPMKKCPKVDHISKSRINSSKETSKFNDEFDLSSSSNDDLELTNPSPIQIKPVRGKIKKGSNCMKPPISSRKKLLLVEDEDQSLKISKKRRRK
partner: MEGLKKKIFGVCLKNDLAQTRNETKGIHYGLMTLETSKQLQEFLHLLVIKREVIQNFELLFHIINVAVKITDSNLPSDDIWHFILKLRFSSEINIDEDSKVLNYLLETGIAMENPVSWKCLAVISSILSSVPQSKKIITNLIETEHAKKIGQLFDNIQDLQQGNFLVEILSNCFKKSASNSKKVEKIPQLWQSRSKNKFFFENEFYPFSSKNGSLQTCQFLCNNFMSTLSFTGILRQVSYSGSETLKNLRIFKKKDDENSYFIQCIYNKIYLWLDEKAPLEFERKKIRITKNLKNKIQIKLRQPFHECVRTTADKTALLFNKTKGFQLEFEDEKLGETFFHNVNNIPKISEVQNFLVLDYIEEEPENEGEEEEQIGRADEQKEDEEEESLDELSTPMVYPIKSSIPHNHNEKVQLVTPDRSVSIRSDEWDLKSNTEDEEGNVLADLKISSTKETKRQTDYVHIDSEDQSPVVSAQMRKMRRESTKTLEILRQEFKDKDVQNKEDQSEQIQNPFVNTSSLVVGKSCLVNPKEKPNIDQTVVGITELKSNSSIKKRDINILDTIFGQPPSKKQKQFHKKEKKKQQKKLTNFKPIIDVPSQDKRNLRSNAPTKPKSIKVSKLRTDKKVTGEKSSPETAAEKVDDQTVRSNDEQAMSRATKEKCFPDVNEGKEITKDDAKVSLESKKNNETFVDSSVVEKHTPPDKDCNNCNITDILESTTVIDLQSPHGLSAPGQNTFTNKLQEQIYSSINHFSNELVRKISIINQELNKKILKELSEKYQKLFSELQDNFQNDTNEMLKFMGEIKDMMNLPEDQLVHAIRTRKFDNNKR
B2: Protein RED1 (Saccharomyces cerevisiae), P14291 (parent)
chain: B1 partner

The text below walks through data of IntAct's records for PubMed 19959993.

Variants of B1 are the subject of one assay. The conditions noted are these: with red1_yeast RED1, P14291.
For D863R, the “effect of a mutation on the interaction” value is “decreasing interaction”.
Consider Q864R, for which the “effect of a mutation on the interaction” value was “decreasing interaction”.
The same measure, in the same setting: with E862R the entry was “decreasing interaction”.

The variants in the next assay derive from B2. The conditions noted are these: with smt3_yeast SMT3, Q12306.
Chain of smt3_yeast SMT3, Q12306 (Q12306 whole entry): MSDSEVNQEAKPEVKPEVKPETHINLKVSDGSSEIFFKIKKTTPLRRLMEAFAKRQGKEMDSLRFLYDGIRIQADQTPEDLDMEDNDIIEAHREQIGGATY
T717R: the “effect of a mutation on the interaction” value is listed as “decreasing interaction”.
Still for that read-out and setting: the result for S715R reads “decreasing interaction”.

A further assay covers variants of B2. As to conditions: with smt3_yeast SMT3, Q12306. The source holds these as a separate data set.
As to I758R, the “effect of a mutation on the interaction” value was “decreasing interaction”.
